Results from PMC3839082.
Changes are numbered by the printed parent chain. Numbers in names are those of the source.

B1: hCINAP (Homo sapiens) (protein)
chain: MLLPNILLTGTPGVGKTTLGKELASKSGLKYINVGDLAREEQLYDGYDEEYDCPILDEDRVVDELDNQMREGGVIVDYHGCDFFPERWFHIVFVLRTDTNVLYERLETRGYNEKKLTDNIQCEIFQVLYEEATASYKEEIVHQLPSNKPEELENNVDQILKWIEQWIKDHNS
B2: hCINAP-H79G (Homo sapiens; H79G) (protein)
chain: B1 chain with H79G

Substrate: Nc1ncnc2c1ncn2[C@@H]1O[C@H](COP(=O)(O)OP(=O)(O)OP(=O)(O)O)[C@@H](O)[C@H]1O
Assay: purified protein
Assay type: biochemical, Homo sapiens
Details: Mg2+ ATP binding site

Protein	Km [µM]	kcat/Km [M⁻¹ s⁻¹]
B1	45 ± 5	140
B2	93 ± 8	–
